Laboratory results reported in PMC3585378 (PLoS ONE, 2013).

Columns and labels:
GST-ubiquitin = biological target: T1, GST-ubiquitin (UniProt P0CG48 1-76); assay: pull-down; conditions: both partners purified
T1 construct: also called GST-tagged ubiquitin

His6-ubiquitin = His6-ubiquitin (UniProt P0CG48 1-76); assay: pull-down; conditions: both partners purified

| Binder | binding result (GST-ubiquitin) | binding result (His6-ubiquitin) |
| --- | --- | --- |
| His6-OspG (natural protein, source: E. coli BL21 (DE3), purified (Ni-NTA)) MKITSTIIQTPFPFENNNSHAGIVTEPILGKLIGQGSTAEIFEDVNDSSALYKKYDLIGNQYNEILEMAWQESELFNAFYGDEASVVIQYGGDVYLRMLRVPGTPLSDIDTADIPDNIESLYLQLICKLNELSIIHYDLNTGNMLYDKESESLFPIDFRNIYAEYYAATKKDKEIIDRRLQMRTNDFYSLLNRKYL | binds |  |
| GST-tagged OspG protein (GST-OspG) (natural protein, source: E. coli BL21 (DE3), purified (glutathione-Sepharose)) MKITSTIIQTPFPFENNNSHAGIVTEPILGKLIGQGSTAEIFEDVNDSSALYKKYDLIGNQYNEILEMAWQESELFNAFYGDEASVVIQYGGDVYLRMLRVPGTPLSDIDTADIPDNIESLYLQLICKLNELSIIHYDLNTGNMLYDKESESLFPIDFRNIYAEYYAATKKDKEIIDRRLQMRTNDFYSLLNRKYL |  | binds |
